According to the RNAGym collection of RNA variant scans (doi:10.7554/elife.80360):

B1: HDV Ribozyme (parent)
chain: GGCCGGCAUGGUCCCAGCCUCCUCGCUGGCGCCGGCUGGGCAACAUUCCGAGGGGACCGUCCCCUCGGUAAUGGCGAAUGGGACCCA

Variants of: B1
Assay: self-cleavage, relative activity (ratio to wild type); higher = more cleavage; co-transcriptional

| Variant | self-cleavage |
| --- | --- |
| G6U U12G | 0 |
| G6C C7G | 0.475 |
| G6C C7U | 0.787 |
| G6C G50A | 0.225 |
| G6C G50U | 0.17 |
| G6A G80U | 0.0813 |
| G6A G80A | 0.147 |
| G6C C44U | 0 |
| G6C G10U | 0.0755 |
| G6C G10A | 0.147 |
| G6U C86G | 0.467 |
| G6U C86U | 0.633 |
| G6A C57U | 0.665 |
| G6A G31A | 0.0992 |
| G6A G31C | 0.111 |
| C7A A16C | 0.277 |
| C7A A16G | 0.249 |
| C7A A16U | 0.499 |
| G6A U20A | 0.0536 |
| G6A U20C | 0.158 |
| G6U G74C | 0.0449 |
| G6U G34A | 0.208 |
| G6U G34U | 0.0755 |
| G6U C18U | 0.0369 |

| Variant | self-cleavage |
| --- | --- |
| G6A G74U | 0.104 |
| G6A G74A | 0.0923 |
| G6A G74C | 0.155 |
| G6U C15U | 0.646 |
| G6U C15A | 0 |
| G6U C44A | 0.213 |
| G6U C44G | 0.268 |
| G6U U9A | 0.623 |
| G6U U9C | 0.465 |
| G6U G11C | 0 |
| G6U G11U | 0.0361 |
| G6U U37A | 0.0437 |
| G6C U69C | 0.172 |
| G6A G40A | 0.505 |
| G6A G40C | 0.232 |
| G6C G11U | 0 |
| G6C G67A | 0.35 |
| G6C G67U | 0.268 |
| G6C G67C | 0.192 |
| C7A A42U | 0.108 |
| C7A A42G | 0.0831 |
| G6A C32G | 0.138 |
| G6A C32U | 1.12 |
| C7A A56G | 0.399 |

| Variant | self-cleavage |
| --- | --- |
| C7A A56C | 0.831 |
| G6C C41A | 0 |
| G6C C41U | 0 |
| G6C C41G | 0 |
| G6U G10A | 0.185 |
| G6A C64U | 0.739 |
| G6A U79G | 0.227 |
| G6C C30U | 0.0723 |
| G6C C30G | 0.0615 |
| C7A A8G | 0.831 |
| C7A A8U | 0.609 |
| C7A A8C | 0.65 |
| G6U G68A | 0.483 |
| G6C G81U | 0.0615 |
| G6C G81C | 0.185 |
| G6C G81A | 0.0811 |
| G6C C66A | 0.201 |
| G6C C66U | 0.256 |
| G6C C18G | 0 |
| G6C G31U | 0 |
| G6C G68C | 0.364 |
| G6A C62G | 0.441 |
| G6A C62U | 0.728 |
| G6A C44U | 0.457 |

| Variant | self-cleavage |
| --- | --- |
| G6A C44A | 0.201 |
| G6A G25C | 0.0462 |
| G6A G25A | 0.121 |
| G6A G25U | 0.089 |
| G6U C64A | 0.415 |
| G6U C64U | 0.723 |
| G6C U9C | 0.391 |
| G6C U9G | 0.208 |
| G6C G39A | 0.0405 |
| G6C G39C | 0.293 |
| G6C G39U | 0.108 |
| G6C G17A | 0 |
| G6U A43C | 0.0489 |
| G6U A43U | 0.212 |
| G6U A43G | 0.0665 |
| G6C G34U | 0 |
| G6C G34C | 0.115 |
| G6C G74A | 0.0875 |
| G6A C49U | 0.58 |
| G6A C49G | 0.222 |
| G6A C49A | 0.566 |
| G6A G59U | 0.755 |
| G6U C57U | 0.573 |
| G6U C57G | 0.491 |

| Variant | self-cleavage |
| --- | --- |
| G6U C26A | 0.397 |
| G6A C86A | 0.536 |
| G6A U9G | 0.653 |
| G6A U9C | 0.795 |
| C7A A70U | 0.356 |
| C7A A70G | 0.426 |
| C7A A70C | 0.346 |
| G6U C24A | 0.0378 |
| G6U C24U | 0.133 |
| G6U C30A | 0.0791 |
| G6C A78C | 0.0831 |
| G6C A78G | 0 |
| G6U G67U | 0.62 |
| G6U G67A | 0.517 |
| G6C C21U | 0.0573 |
| G6U G25A | 0.169 |
| G6U U65G | 0.453 |
| G6U C85G | 0.297 |
| G6C G52A | 0.369 |
| G6C G52U | 0.237 |
| C7A A51G | 0.635 |
| C7A A51C | 0.609 |
| G6A C63A | 0.407 |
| G6C A71U | 0.138 |

| Variant | self-cleavage |
| --- | --- |
| G6C A71G | 0 |
| G6U G80A | 0.104 |
| G6C C15A | 0 |
| G6C C15U | 0.138 |
| G6C C49A | 0.262 |
| G6U G50C | 0.776 |
| G6A G17U | 0.0773 |
| G6C C33G | 0.185 |
| G6C C33A | 0.172 |
| G6U G82C | 0.17 |
| G6C U20G | 0.0978 |
| G6C U20C | 0.0923 |
| G6A G34C | 0.104 |
| G6U A78U | 0.107 |
| G6C C22U | 0.185 |
| G6A C48G | 0.657 |
| G6A C48U | 0.759 |
| G6A C48A | 0.465 |
| G6C C26A | 0.369 |
| G6C C26G | 0.378 |
| G6C C26U | 0.646 |
| G6U U23A | 0.466 |
| G6U U23C | 0.312 |
| G6U A16U | 0.305 |

| Variant | self-cleavage |
| --- | --- |
| G6U C32A | 1.08 |
| G6U C32U | 0.787 |
| G6C C13U | 0.0831 |
| G6C C13A | 0 |
| G6C C13G | 0.151 |
| G6U G35U | 0.143 |
| G6U G35A | 0.208 |
| G6C C62G | 0.151 |
| G6C C62U | 0.193 |
| G6C C57A | 0.346 |
| G6U G39C | 0.151 |
| G6U G39U | 0.106 |
| G6C G80C | 0.172 |
| G6C G80A | 0.0665 |
| G6A U27C | 0.268 |
| G6A G67A | 0.763 |
| G6C C75G | 0.0536 |
| G6C C75A | 0.0723 |
| G6C C58G | 0.133 |
| G6U G38U | 0.0308 |
| G6U G38A | 0.0396 |
| G6C A8U | 0.346 |
| G6U G73A | 0.113 |
